Changes are numbered by the printed parent chain. Names and notes keep the numbering of the source. Values belong to the binder of their own block, whether it stands above or below them.
Experiments:
[1] = molecular target: T1, CEACAM3 on transfected HeLa cells (human, UniProt P40198 35-252); assay: flow cytometry, HeLa-CEACAM3 transfectants, % staining, stacked bars
T1 construct: whole, on cells; also called HeLa-CEACAM3; HeLa C3
T1 sequence (looked up): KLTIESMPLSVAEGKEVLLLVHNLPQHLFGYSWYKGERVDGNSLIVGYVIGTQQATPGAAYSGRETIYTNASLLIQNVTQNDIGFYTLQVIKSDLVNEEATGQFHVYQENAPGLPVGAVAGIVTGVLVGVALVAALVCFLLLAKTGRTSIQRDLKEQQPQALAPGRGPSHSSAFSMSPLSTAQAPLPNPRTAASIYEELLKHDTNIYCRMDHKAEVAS
Source text: FIG. 11 illustrates the binding selectivity of different affinity-matured CEACAM1 antibodies. […] HELA cells were transfected with vector alone (HeLa-Neo) or vectors expressing CEACAM1, CEACAM3, CEACAM5, or CEACAM6, respectively, and stained with the indicated antibodies. […] MOPC=mouse IgG1 control antibody. Mouse antibodies as positive control for transfected CEACAM isoforms: Col-1=CEACAM3 and CEACAM5 antibody. 9A6=CEACAM6 antibody. T84.1=CEACAM cross-reactive antibody and T84.66=CEACAM5 antibody. Only 2nd FITC=No primary antibody, only secondary FITC conjugated antibody. […] Data for affinity-matured antibodies 9B3_8H3/Vκ8 S29A, 8H3_9B3/CP08_E05, and 8H3_9C2/CPO08_F05, as well as data for CEACAM8 antibody 80H3 were omitted from the FIG. due to an unusually high background signal.

[2] = molecular target: T2, CEACAM5 (recombinant protein) (human, UniProt P06731 35-685); assay: SPR single-cycle kinetics, antibody captured on Protein A, CEACAM-5 injected at three rising concentrations [Cont.]
T2 construct: construct not described
T2 sequence (looked up): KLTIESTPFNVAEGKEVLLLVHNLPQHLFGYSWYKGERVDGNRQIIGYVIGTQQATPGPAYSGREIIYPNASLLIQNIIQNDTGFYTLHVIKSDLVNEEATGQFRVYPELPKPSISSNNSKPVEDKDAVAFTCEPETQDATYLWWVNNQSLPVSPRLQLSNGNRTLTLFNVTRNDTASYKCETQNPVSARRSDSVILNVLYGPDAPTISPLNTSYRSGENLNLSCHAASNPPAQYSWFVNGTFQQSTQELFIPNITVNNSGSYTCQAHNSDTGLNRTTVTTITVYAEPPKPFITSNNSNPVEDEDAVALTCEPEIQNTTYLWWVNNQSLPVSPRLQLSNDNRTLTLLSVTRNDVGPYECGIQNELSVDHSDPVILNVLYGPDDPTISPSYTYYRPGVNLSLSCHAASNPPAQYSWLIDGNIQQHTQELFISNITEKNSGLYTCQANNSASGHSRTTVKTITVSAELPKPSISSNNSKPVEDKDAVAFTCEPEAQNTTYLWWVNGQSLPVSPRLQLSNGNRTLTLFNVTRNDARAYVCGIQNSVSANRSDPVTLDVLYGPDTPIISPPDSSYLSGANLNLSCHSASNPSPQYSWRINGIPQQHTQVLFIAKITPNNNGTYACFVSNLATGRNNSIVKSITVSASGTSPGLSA
Description: In order to assess the binding of the humanized, affinity matured reformatted lead IgGs, single-cycle kinetics analysis was performed on crude supernatants using a Biacore T200 running Biacore T200 Control Software V2.0.1 and Biacore T200 Evaluation Software V3.0. Antibodies were diluted in HBS-P+ to a final concentration of 0.5 μg/ml. At the start of each cycle, antibodies were loaded onto Fc2, Fc3 and Fc4 of the Protein A chip. IgGs were captured at a flow rate of 10 μl/min to give an immobilisation level (RL) of ˜100 RU (a level calculated to obtain a Rₘₐₓ of ˜50-150 RU once the analyte is bound). The surface was then allowed to stabilize. Single-cycle kinetics data was obtained with CEACAM1 as the analyte at a flow rate of 80 μl/min to minimize any potential mass transfer effects. Multiple repeats with the parent (VH1/Vκ8 S29A) antibody were performed to check the stability of the surface and analyte over the kinetic cycles. The signal from the reference channel Fc1 (no antibody) was subtracted from that of Fc2, Fc3 and Fc4 to correct for differences in non-specific binding to the reference surface. […] The association phase for the three injections of increasing concentrations of CEACAM1 was monitored for 80 seconds each time and a single dissociation phase was measured for 150 seconds following the last injection of CEACAM1. […]

binding result [1]: no binding
B1: VH1/Vκ8 S29A (antibody, IgG4, V domains shown)
VH: EVQLLESGGGLVQPGGSLRLSCAASGFIFSSHGMSWVRQAPGKGLEWVATISSGGTYTYYPDSVKGRFTISRDNSKNTLYLQMNSLKAEDTAMYYCARHDFDYDAAWFAYWGQGTLVTVSS
VL: EIVLTQSPATLSLSPGERATLSCRANSAVSYMYWYQQKPGQAPRPWIYLTSNRATGVPARFSGSGSGTDYTLTISSLEPEDFAVYYCQQWSSNPPTFGQGTKLEIK
notes: IgG4 (S241P), kappa; also called Parent; Parent (VH1/Vκ8 S29A)

binding result [2]: no binding
binding result [1]: no binding
B2: CP08H03/CP08F05 (antibody, V domains shown)
VH: B1 VH with D104F, A105P, A106Y, Y110H
VL: B1 VL with S91T
notes: IgG4 (S241P), kappa

binding result [2]: no binding
B3: CP08H03/Vκ8 S29A (antibody, IgG4, V domains shown)
VH: B1 VH with D104F, A105P, A106Y, Y110H
VL: B1 VL
notes: IgG4 (S241P), kappa; also called CP08_H03/Parent VL; CP08_H03/Parental
